Measurements published in publication doi:10.1101/2020.06.04.133876 (bioRxiv, 2020).
Positions count from the first letter of the chain named. Names and notes keep the numbering of the source.

B1: OtDUBGEF (residues 548-759), His-tagged construct (domain or fragment)
chain: ERLVKKVTSNLETELKFFKGRLVQELMQIVKNENGRIDHTSKNWQESASVLLNSQEKGAVSLAEVERAVSKMTQKLRDQKVSEEEVVNIESKLKFERASLEAKLFDDNEIKELINKRIKEDALRAIPFLGSDSESFMEKISPFVKLPDDSYSLLKANDKHHPFQNILYSNALKFFADSSDIGYLNDDSLKNLTPENLNAFEQAVAADIDKLM
notes: source: E. coli BL21(DE3), purified (Ni-NTA, Superdex 75)
B2: GST-OtDUB C-terminal truncation (275-913) (domain or fragment)
chain: SAEVSSKEELYVPKINQVEESLEAQLKYINEHIASQLMQIVKNSNGEIDCNSSNFQEEVSSLLNSRSKETTSLATIEQNFNEIIQQLRKEKVNEERVSAIELQLKANRAVLEAKLSNTEDVKSLVNQKIKEETLQAIPFFGNAAERANFKKHLAHFVKLPDNSYSLLKQKEKRHPFCNIIGANAVKFFSPQSNAVYLNTSAYNQITSGNLKAFEAAVTTDINNLMLKEAAVTIDAVSPNKEAVESGKDLSKTDELAELKEVKSNLETELKILKERLVKKVTSNLETELKFFKGRLVQELMQIVKNENGRIDHTSKNWQESASVLLNSQEKGAVSLAEVERAVSKMTQKLRDQKVSEEEVVNIESKLKFERASLEAKLFDDNEIKELINKRIKEDALRAIPFLGSDSESFMEKISPFVKLPDDSYSLLKANDKHHPFQNILYSNALKFFADSSDIGYLNDDSLKNLTPENLNAFEQAVAADIDKLMSRDVTLNVSDLKSYVANSPNPDLIADYLALEWQIHTPGLKGLYDDLQASHQLQLNELENKHAKQLLSDLANLSKLPSMRGILPEFKDEFYNEIDKKPEERSVEYKNFINKCSELPDAMLQPAKCSAQALLEFNKYERDLNSFKQGVFCAIDNYK
notes: OtDUB (ORF OTT_1962), Orientia tsutsugamushi Ikeda isolate; pGEX6P1 construct; source: E. coli Rosetta DE3, purified (glutathione resin)
B3: GST-OtDUBGEF E561A (domain or fragment)
chain: B1 chain with E14A
notes: OtDUB (ORF OTT_1962), Orientia tsutsugamushi Ikeda isolate; also called switch I (E561A) mutant; source: E. coli Rosetta DE3, purified (glutathione resin)
B4: GST-OtDUBGEF N590A/E593A (domain or fragment)
chain: B1 chain with N43A, E46A
notes: OtDUB (ORF OTT_1962), Orientia tsutsugamushi Ikeda isolate; also called switch II (N590A/E593A) mutant; source: E. coli Rosetta DE3, purified (glutathione resin)
B5: Cdc42 (residues 1-177), recombinant (domain or fragment)
chain: not shown

Legend:
[1] = target: T1, Rac1 (residues 1-177), recombinant (human, UniProt P63000 1-177); test: ITC; details: both partners purified
[2] = target: T1, Rac1 (residues 1-177), recombinant; test: cell-based or functional assay
[3] = target: T1, Rac1 (residues 1-177), recombinant; test: pull-down; GST-tagged OtDUB fragments (20 μM) as bait and Rac1 (60 µM) as prey, 50 mM Tris-HCl pH 7.5, 150 mM NaCl, 0.1 mM TCEP, glutathione resin 1 h at 4°C; Coomassie; details: both partners purified
[4] = target: B1; test: ITC; details: both partners purified

Binder	binding result [3]	other results
B1		Kd [1]: ~5 µM; kcat/KM of BODIPY-GDP dissociation from Rac1 with increasing amounts of OtDUBGEF [2]: 260000 M⁻¹ s⁻¹
B2	binds	
B3	binds	
B4	binds	
B5		Kd [4]: ~16 µM
